These results are taken from PMC10917784.

In the assay the target is Trastuzumab. The assay can be described thus: SPR; antibody constructs immobilised on a Protein L Series S CM5 chip, increasing concentrations of Fc receptor flushed; Biacore 8K+, 25 °C, neutral pH; steady state affinity model. The note with it: remark: other sources report otherwise. On the technique in general: In SPR one partner is held on a chip, and binding of the other changes the refractive index at the surface.

B1: human FcγRIIa ECD, P12318 34-217 (receptor)
chain: QAAAPPKAVLKLEPPWINVLQEDSVTLTCQGARSPESDSIQWFHNGNLIPTHTQPSYRFKANNNDSGEYTCQTGQTSLSDPVHLTVLSEWLVLQTPHLEFQEGETIMLRCHSWKDKPLVKVTFFQNGKSQKFSHLDPTFSIPQANHSHSGDYHCTGNIGYTLFSSKPVTITVQVPSMGSSSPMG
As a reminder, the Kd is the free concentration of one partner at which half of the binding sites on the other are occupied at equilibrium, for simple one-to-one binding. Read a low Kd as tighter binding. The molecule B1 returned a dissociation constant Kd of 543 nM.
